Reference: patent US20100272750A1

Columns and labels:
Test in all cases: competition with 125I probe peptide, purified HLA
HLA DRB1*0101 (human) = target: HLA DRB1*0101 (human)
HLA DRB1*0301 (human) = target: HLA DRB1*0301 (human)
HLA DRB1*0401 (human) = target: HLA DRB1*0401 (human)
HLA DRB1*0404 (human) = target: HLA DRB1*0404 (human)
HLA DRB1*0405 (human) = target: HLA DRB1*0405 (human)
HLA DRB1*0701 (human) = target: HLA DRB1*0701 (human)
HLA DRB1*0802 (human) = target: HLA DRB1*0802 (human)
HLA DRB1*0901 (human) = target: HLA DRB1*0901 (human)
HLA DRB1*1101 (human) = target: HLA DRB1*1101 (human)
HLA DRB1*1201 (human) = target: HLA DRB1*1201 (human)
HLA DRB1*1302 (human) = target: HLA DRB1*1302 (human)
HLA DRB1*1501 (human) = target: HLA DRB1*1501 (human)
HLA DRB3*0101 (human) = target: HLA DRB3*0101 (human)
HLA DRB4*0101 (human) = target: HLA DRB4*0101 (human)
HLA DRB5*0101 (human) = target: HLA DRB5*0101 (human)

B1: HPV31.E6.132 HTL epitope (peptide)
peptide: TGRCIACWRRPRTET
modifications: not checked
What does the source list for B1?
IC50 (HLA DRB1*0101 (human)): 3170 nM; IC50 (HLA DRB1*0301 (human)): 1030 nM; IC50 (HLA DRB1*0401 (human)): 758 nM; IC50 (HLA DRB1*0404 (human)): 1150 nM; IC50 (HLA DRB1*0405 (human)): 733 nM; IC50 (HLA DRB1*0701 (human)): 11500 nM; IC50 (HLA DRB1*0802 (human)): 512 nM; IC50 (HLA DRB1*0901 (human)): 13600 nM; IC50 (HLA DRB1*1101 (human)): 158 nM; IC50 (HLA DRB1*1201 (human)): 4950 nM; IC50 (HLA DRB1*1302 (human)): 2770 nM; IC50 (HLA DRB1*1501 (human)): 84 nM; IC50 (HLA DRB3*0101 (human)): 5960 nM; IC50 (HLA DRB4*0101 (human)): 225 nM; IC50 (HLA DRB5*0101 (human)): 6050 nM
